{"source": "paper PMC4407904", "about": "“Increased Expression of the Large Conductance, Calcium-Activated K^+ (BK) Channel in Adult-Onset Neuronal Ceroid Lipofuscinosis” (PLoS ONE, 2015)", "proteins": {"B1": {"name": "myc-tagged wild type cysteine string protein (CSPα) (natural protein, UniProt P60905 1-198, looked up)", "chain": "MADQRQRSLSTSGESLYHVLGLDKNATSDDIKKSYRKLALKYHPDKNPDNPEAADKFKEINNAHAILTDATKRNIYDKYGSLGLYVAEQFGEENVNTYFVLSSWWAKALFVVCGLLTCCYCCCCLCCCFNCCCGKCKPKAPEGEETEFYVSPEDLEAQLQSDEREATDTPIVIQPASATETTQLTADSHPSYHTDGFN", "notes": "Cysteine string protein alpha (CSPα, DnaJC5), wild type; Seen on blots as an unpalmitoylated 26 kDa species, a palmitoylated 35 kDa monomer and a 70 kDa dimer; rat cDNA is surmised; also called WTCSPα; myc-CSPα; source: CAD cells, transiently transfected, in lysate"}}, "molecular_target": "the molecule itself", "assay": "SDS-PAGE and immunoblot of detergent-resistant oligomers; soluble CAD cell lysates (1% Triton X-100, 0.1% SDS lysis buffer) 24-72 h after transient transfection; blots with anti-myc, anti-flag or anti-CSPα"}
{"protein": "B1", "values": [{"measurement": "stoichiometry N", "result": 2}]}
